The target of the test is T1, human BCMA-Fc fusion protein (human, UniProt Q02223 1-54).
T1 sequence (looked up): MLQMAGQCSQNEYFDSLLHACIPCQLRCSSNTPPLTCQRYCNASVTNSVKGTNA
As to the kind of experiment: ELISA. Background: ELISA stands for enzyme-linked immunosorbent assay.

B1: anti-BCMA DVD-IgG1 (2) (bispecific antibody)
light: DIQMTQSPSSLSASVGDRVTITCSASQDISNYLNWYQQKPGKAPKLLIYYTSNLHSGVPSRFSGSGSGTDFTLTISSLQPEDFATYYCQQYRKLPWTFGQGTKLEIKASTKGPELQMTQSPSSLSASVGDRVTITCRSSQSLLHTYGSPYLNWYLQKPGQSPKLLIYKVSNRFSGVPSRFSGSGSGTDFTLTISSLQPEDFAVYFCSQGTHLPYTFGGGTKVEIKRTVAAPSVFIFPPSDEQLKSGTASVVCLLNNFYPREAKVQWKVDNALQSGNSQESVTEQDSKDSTYSLSSTLTLSKADYEKHKVYACEVTHQGLSSPVTKSFNRGEC
heavy: not shown
With B1, the binding result was “binds”.
